{"source": "patent US20110263485A1", "about": "“Bifunctional Griffithsin Analogs” (priority 2009, published 2011)", "assay_in_all_cases": "cell-based or functional assay", "key": {"[1]": {"target": "HIV-1 HXB2 env (X4) (gp120 and gp41) (HIV-1 strain HXB2) (UniProt P04578)"}, "[2]": {"target": "HIV-1 91US005 (R5) env (gp120 and gp41) (HIV-1 strain 91US005)"}, "[3]": {"target": "HIV-1 ADA (R5) env (gp120 and gp41) (HIV-1 strain ADA)"}, "[4]": {"target": "HIV-1 JRFL (R5) env (gp120 and gp41) (HIV-1 strain JRFL)"}, "[5]": {"target": "HIV-1 Ba-L (R5) env (gp120 and gp41) (HIV-1 strain Ba-L)"}, "[6]": {"target": "HIV-1 NL4-3 (CXCR4-tropic) env (gp120 and gp41) (HIV-1 strain NL4-3)"}, "[7]": {"target": "HIV-1 92HT599 (CXCR4-tropic) env (gp120 and gp41) (HIV-1 strain 92HT599)"}, "[8]": {"target": "HIV-1 IIIB (X4) env (gp120 and gp41) (HIV-1 strain IIIB)"}}, "data": [{"substance": "Griffithsin (from UniProt P84801 1-121)", "values": [{"measurement": "X4 fusion assay IC50", "setting": "[1]", "result": 0.468, "unit": "nM"}, {"measurement": "Inhibition of HIV virus, 91US005 (R5) in PBMC, IC50", "setting": "[2]", "result": 0.16, "unit": "nM"}, {"measurement": "Inhibition of HIV virus, 91US005 (R5) in PBMC, IC90", "setting": "[2]", "result": 0.51, "unit": "nM"}, {"measurement": "Inhibition of HIV-1 Replication in PBMCs, 91US005 (CCR5-tropic), IC50", "setting": "[2]", "result": 0.28, "unit": "nM"}, {"measurement": "Inhibition of HIV-1 Replication in PBMCs, 91US005 (CCR5-tropic), IC90", "setting": "[2]", "result": 0.76, "unit": "nM"}, {"measurement": "Inhibition of HIV single round pseudovirus in TZM-bl cells, ADA (R5), IC50", "setting": "[3]", "result": 0.008, "unit": "nM"}, {"measurement": "Inhibition of HIV single round pseudovirus in TZM-bl cells, ADA (R5), IC90", "setting": "[3]", "result": 0.164, "unit": "nM"}, {"measurement": "Inhibition of HIV virus, ADA (R5) in MAGI cells, IC50", "setting": "[3]", "result": 0.03, "unit": "nM"}, {"measurement": "Inhibition of HIV virus, ADA (R5) in MAGI cells, IC90", "setting": "[3]", "result": 0.45, "unit": "nM"}, {"measurement": "R5 fusion assay IC50", "setting": "[3]", "result": 1.3, "unit": "nM"}, {"measurement": "R5 fusion with competition IC50", "setting": "[3]", "result": 1.73, "unit": "nM"}, {"measurement": "R5 fusion with wash-out on ADA cells IC50", "setting": "[3]", "result": 4.28, "unit": "nM"}, {"measurement": "R5 fusion with wash-out on P5L cells IC50", "setting": "[3]", "result": 7.34, "unit": "nM"}, {"measurement": "Inhibition of HIV single round pseudovirus in TZM-bl cells, JRFL (R5), IC50", "setting": "[4]", "result": 0.035, "unit": "nM"}, {"measurement": "Inhibition of HIV single round pseudovirus in TZM-bl cells, JRFL (R5), IC90", "setting": "[4]", "result": 1.25, "unit": "nM"}, {"measurement": "Inhibition of HIV virus, Ba-L (R5) in MAGI cells, IC50", "setting": "[5]", "result": 0.04, "unit": "nM"}, {"measurement": "Inhibition of HIV virus, Ba-L (R5) in MAGI cells, IC90", "setting": "[5]", "result": 0.515, "unit": "nM"}, {"measurement": "Inhibition of HIV virus, Ba-L (R5) in PBMC, IC50", "setting": "[5]", "result": 0.28, "unit": "nM"}, {"measurement": "Inhibition of HIV virus, Ba-L (R5) in PBMC, IC90", "setting": "[5]", "result": 0.76, "unit": "nM"}, {"measurement": "Inhibition of HIV-1 Replication in PBMCs, NL4-3 (CXCR4-tropic), IC50", "setting": "[6]", "result": 0.17, "unit": "nM"}, {"measurement": "Inhibition of HIV-1 Replication in PBMCs, NL4-3 (CXCR4-tropic), IC90", "setting": "[6]", "result": 0.725, "unit": "nM"}, {"measurement": "Inhibition of HIV-1 Replication in PBMCs, 92HT599 (CXCR4-tropic), IC50", "setting": "[7]", "result": 0.74, "unit": "nM"}, {"measurement": "Inhibition of HIV-1 Replication in PBMCs, 92HT599 (CXCR4-tropic), IC90", "setting": "[7]", "result": 1.86, "unit": "nM"}, {"measurement": "Inhibition of HIV virus, IIIB (X4) in MAGI cells, IC50", "setting": "[8]", "result": 0.145, "unit": "nM"}, {"measurement": "Inhibition of HIV virus, IIIB (X4) in MAGI cells, IC90", "setting": "[8]", "result": 0.89, "unit": "nM"}]}]}
